Reference: US20180280528A1, “ANTIFOLATE CONJUGATES FOR TREATING INFLAMMATION” (ENDOCYTE, INC., priority 2015, published 2018)

What was measured:
[1] = Incubation with RAW264.7 cell lysates; format: in vitro ADME, mouse; conditions: RAW264.7 lysate, pH 4.5, 37° C., 2 hours
Description: To 100 μL AIA rat macrophage, RAW264.7 or THP-1 FRβ cell lysates (each containing 10 million cells/mL 0.1 M sodium acetate, Ph 4.5) was added 2 μL of a 50 μM solution of EC2319 or EC1669 (Endocyte, Inc.). The solutions were incubated at 37° C. in a heat block (VWR International, Radnor, Pa.) for 2 hours. The reaction was terminated by the addition of 5 µL of stabilizer solution and 100 μL of acetonitrile containing d5-aminopterin (Endocyte, Inc.). The rest of the workup is as described above.

[2] = Release of aminopterin in human hepatic cytosol; format: in vitro ADME; conditions: 5% human liver cytosol, 1 hour; for pH dependence of aminopterin release from the conjugate: pH 4.5, 6.0, 7.4, 37° C.
Description: EC2319 and EC1669 were incubated in 5% rat, dog, and human hepatic cytosol at different pH's to look at release of aminopterin from these conjugates. Liver cytosols from male Sprague-Dawley rats (Lot No. 1110428), male beagle dogs (Lot no. 1310024), and male humans (Lot No. 0710493), all containing 10 mg/mL protein, were obtained from Xenotech LLC (Lenexa, Kans.). These were diluted 20× in either 0.5 M sodium acetate buffer, pH 4.5, 0.5 M sodium acetate buffer, 6.0, or 0.5 M potassium phosphate buffer, pH 7.4 in a final volume of 500 μL. Reactions were initiated by the addition of 1 μL of either EC2319 or EC1669 and the reaction mixtures incubated at 37° C. for 1 hour. At the end of the incubation, a 100 μL aliquot was withdrawn into a cluster tube and the reaction was terminated by the addition of 5 μL of stabilizer solution (containing 8.5 mg/ml N-Maleoyl-β-alanine, 20 mg/mL mannitol and 0.075% acetic acid) and 100 μL of acetonitrile containing d5-aminopterin. The tubes were vortexed and then centrifuged at 4000 rpm for 10 minutes (Eppendorf centrifuge 5810R). 150 μL of the supernatant was transferred to 96-well plates and the acetonitrile evaporated off under nitrogen at 35° C. for 5 minutes. The extract was diluted with 50 μL of mobile phase A. The plate was vortexed on a VX-2500 multi-tube vortexer (VWR International, Radnor, Pa.) and the extract analyzed by LC-MS/MS.

Pharmacokinetics in dogs = conditions: beagle, dog, in vivo
Description: (§1) The samples were centrifuged under refrigeration for at least 10 minutes at 3000 rpm and the plasma generated stored at −20° C. until LC-MS/MS analysis.
as §1
LC-MS/MS analysis utilized a Waters Acquity UPLC system paired with a Waters Quattro Premier XE tandem quadrupole mass spectrometer operating in ESI positive mode. Prior to injection, K3EDTA plasma samples were processed using a Phenomenex Strata X-A solid phase extraction (SPE) plate. All plasma samples were fortified with N-Maleoyl-β-alanine, mannitol, and acetic acid. Briefly, 50 μL of plasma diluted with 50 μL of internal standard solution and 500 μL 1000:4:1.5 water:ammonium hydroxide:formic acid was mixed and loaded onto a preconditioned Strata X-A SPE plate. Aqueous and organic washes were then applied followed by elution of all analytes with 300:200:7.5 methanol:water:formic acid. The samples were evaporated until approximately 30 μL remained in all wells and 30 μL of 9:1 water:ammonium hydroxide was then added. Finally, the plate was sealed, mixed, and centrifuged prior to transfer to the 2-8° C. Acquity autosampler. Note: During EC1669 analysis, EC0470 was converted to a hydrazone product for bioanalysis. Acetone (500 μL) was added to all samples after the first evaporation step followed by sealing all wells and heating at 50° C. for one hour. After this step, the acetone was evaporated and the extraction completed as described above.
A 10 μL sample volume was applied to the Waters BEH Shield RP18 100×2.1 mm, […] UPLC column operating at a flow rate of 0.4 mL/min while being maintained at 45° C. A gradient between mobile phase A (1000:4:1.5 water:ammonium hydroxide:formic acid) and mobile phase B (acetonitrile) was used to separate the analytes. The gradient was held at 2% B for the first 30 seconds of the chromatographic run followed by increasing to 20% B by 2.5 minutes. A rapid gradient from 60-90% B is then used to clean the column prior to equilibration at 2% B to complete the 4 minute run cycle.
For EC1669 MS/MS analysis, EC1669 and its known major metabolites, EC1886 and […], were optimized and monitored. […] In all cases, internal standard response was used to generate response ratios for each analyte. When calibrated, data was regressed using MassLynx 4.1 software. The table below lists transitions for analytes and internal standards monitored for LC-MS/MS bioanalysis.

[3] = system: Rat adjuvant arthritis (AIA); test: Rat adjuvant arthritis (AIA) treatment studies; format: in vivo
Description: Female Lewis rats (175-200 g) were purchased from Harlan Sprague Dawley (Indianapolis, Ind.) and allowed to acclimate for 1 week. Generally, rats were fed a folate-deficient diet (Harlan Teklad) for 9-10 days prior to arthritis induction.
Rat adjuvant arthritis (AIA) was induced by intradermal inoculation (at the base of tail) of 0.45-0.46 mg of heat-killed Mycobacteria butyricum (BD Diagnostic Systems, Sparks, Md.) in 100 μL light mineral oil (Sigma). […] During the course of disease development, animals were weighed at least 3 times a week. Paw edema (degree of arthritis) were scored 3 times a week as follows: 0=no edema or arthritis; 1=swelling in one type of joint; 2=swelling in two types of joint; 3=swelling in three types of joint; 4=swelling of the entire paw. A total score for each rat is calculated by adding up the scores for each of the four paws, giving a maximum of 16 per animal.
On the first day of treatment, rats with desired arthritis scores were distributed evenly across the control and treatment groups (n=5). […] All compounds and conjugates were administered subcutaneously (s.c.) starting 9 days after arthritis induction with biweekly (BIW, Mondays and Thursdays) or once-a-week (QW, Mondays) dosing for two consecutive weeks. At the completion of each study (˜4 days after the last treatment), rats were euthanized by CO2 asphyxiation and processed for paw weight (cut at the hairline) and spleen weight.
The rat AIA model resembles many characteristics of human rheumatoid arthritis and it is very aggressive. […] The animals in the AIA control group were left untreated.

SMILES: N=c1[nH]c(N)nc2ncc(CNc3ccc(C(=O)N[C@@H](CCC(=O)NNC(=O)OCCSSC[C@@H](NC(=O)[C@H](CCC(=O)NC[C@H](O)[C@@H](O)[C@H](O)[C@H](O)CO)NC(=O)[C@@H](CCC(=O)O)NC(=O)[C@H](CCC(=O)NC[C@H](O)[C@@H](O)[C@H](O)[C@H](O)CO)NC(=O)[C@@H](CCC(=O)O)NC(=O)[C@H](CCC(=O)NC[C@H](O)[C@@H](O)[C@H](O)[C@H](O)CO)NC(=O)CC[C@H](NC(=O)c4ccc(NCc5cnc6nc(N)[nH]c(=O)c6n5)cc4)C(=O)O)C(=O)O)C(=O)O)cc3)nc12 [EC1669, reference compound]
- aminopterin release [1]: greater from EC1669 than from EC2319
- pH dependence of aminopterin release from the conjugate [2]: highest at pH 4.5
- AUC(0-t) (Pharmacokinetics in dogs; sc, 2.4 mg/kg): 4.07 µM·h
- Cmax (Pharmacokinetics in dogs; sc, 2.4 mg/kg): 1390 nM
- Tmax (Pharmacokinetics in dogs; sc, 2.4 mg/kg): 1.19 h
- half-life (Pharmacokinetics in dogs; sc, 2.4 mg/kg): 0.994 h
- body weight ([3]; Study 2, 500 nmol/kg, BIW): maintained a healthier body weight than EC2285
- residual disease ([3]; Study 2, 500 nmol/kg, BIW): minimal residual diseases
- anti-arthritic activity ([3]; Study 3, 500 nmol/kg, BIW): significant anti-arthritic activity
- body weight ([3]; Study 3, 500 nmol/kg, BIW): maintained a good body weight

SMILES: COC(=O)[C@H](CSSC(C)(C)[C@H](NC(=O)[C@H](CCC(=O)NC[C@H](O)[C@@H](O)[C@H](O)[C@H](O)CO)NC(=O)[C@H](CCC(=O)O)NC(=O)[C@H](CCC(=O)NC[C@H](O)[C@@H](O)[C@H](O)[C@H](O)CO)NC(=O)[C@H](CCC(=O)O)NC(=O)[C@H](CCC(=O)NC[C@H](O)[C@@H](O)[C@H](O)[C@H](O)CO)NC(=O)CC[C@H](NC(=O)c1ccc(NCc2cnc3nc(N)[nH]c(=O)c3n2)cc1)C(=O)O)C(=O)O)NC(=O)CC[C@H](NC(=O)c1ccc(NCc2cnc3nc(N)nc(N)c3n2)cc1)C(=O)O [EC2319]
- aminopterin release [1]: aminopterin release was observed
- magnitude of aminopterin release ([2]; 37° C.): lower than that from EC1669
- pH dependence of aminopterin release from the conjugate [2]: highest at pH 4.5
- bioavailability (Pharmacokinetics in dogs; male, 2.43 mg/kg): 133%
- Tmax (Pharmacokinetics in dogs; male, iv, 1 mg/kg): 0.03 h
- Vd (Pharmacokinetics in dogs; male, iv, 1 mg/kg): 0.41 L/kg
- clearance (Pharmacokinetics in dogs; male, iv, 1 mg/kg): 4.7 mL/min/kg
- half-life (Pharmacokinetics in dogs; male, iv, 1 mg/kg): 1.01 h
- AUC(0-t) (Pharmacokinetics in dogs; male, sc, 2.43 mg/kg): 5.07 µM·h
- half-life (Pharmacokinetics in dogs; male, sc, 2.43 mg/kg): 1.21 h
- alleviating AIA symptoms (arthritis score, paw weight, spleen weight) ([3]; Study 1, 1000 nmol/kg, QW, s.c., two consecutive weeks): as effective as EC1669, EC2285, and EC2318
- anti-arthritic activity with concurrent EC0923 (arthritis score, paw weight, spleen weight, body weight) ([3]; Study 2, 500 nmol/kg BIW plus 500-fold molar excess EC0923 (250 μmol/kg)): fully blocked by EC0923
- body weight ([3]; Study 2, 500 nmol/kg, BIW): maintained a healthier body weight than EC2285
- residual disease ([3]; Study 2, 500 nmol/kg, BIW): minimal residual diseases
- reducing arthritis scores and paw weights ([3]; Study 2, 500 nmol/kg, BIW, s.c., two consecutive weeks): equally efficacious as EC1669 but significantly more active than EC2285
- anti-arthritic activity ([3]; Study 3, 500 nmol/kg, BIW): significant anti-arthritic activity
- body weight ([3]; Study 3, 500 nmol/kg, BIW): maintained a good body weight
- decreasing arthritis score, paw weight, and spleen weight ([3]; Study 3, 500 nmol/kg, BIW, two consecutive weeks): as efficacious as EC1669
